The values below come from paper PMC8799657 (Nature Communications, 2022).

Experiment [1] concerns the target T1, soluble human transferrin receptor 1 (human, UniProt P02786).
T1 construct: also called sTfR1; human sTfR1
Nature of the experiment: BLI. The settings on record: both partners purified.

The target of experiment [2] is T2, human transferrin receptor 1 on the cell surface (human (endogenous in erythroblasts), UniProt P02786).
T2 construct: also called hTfR1; TfR1
The settings on record: one partner purified.

T2 sequence (P02786 whole entry): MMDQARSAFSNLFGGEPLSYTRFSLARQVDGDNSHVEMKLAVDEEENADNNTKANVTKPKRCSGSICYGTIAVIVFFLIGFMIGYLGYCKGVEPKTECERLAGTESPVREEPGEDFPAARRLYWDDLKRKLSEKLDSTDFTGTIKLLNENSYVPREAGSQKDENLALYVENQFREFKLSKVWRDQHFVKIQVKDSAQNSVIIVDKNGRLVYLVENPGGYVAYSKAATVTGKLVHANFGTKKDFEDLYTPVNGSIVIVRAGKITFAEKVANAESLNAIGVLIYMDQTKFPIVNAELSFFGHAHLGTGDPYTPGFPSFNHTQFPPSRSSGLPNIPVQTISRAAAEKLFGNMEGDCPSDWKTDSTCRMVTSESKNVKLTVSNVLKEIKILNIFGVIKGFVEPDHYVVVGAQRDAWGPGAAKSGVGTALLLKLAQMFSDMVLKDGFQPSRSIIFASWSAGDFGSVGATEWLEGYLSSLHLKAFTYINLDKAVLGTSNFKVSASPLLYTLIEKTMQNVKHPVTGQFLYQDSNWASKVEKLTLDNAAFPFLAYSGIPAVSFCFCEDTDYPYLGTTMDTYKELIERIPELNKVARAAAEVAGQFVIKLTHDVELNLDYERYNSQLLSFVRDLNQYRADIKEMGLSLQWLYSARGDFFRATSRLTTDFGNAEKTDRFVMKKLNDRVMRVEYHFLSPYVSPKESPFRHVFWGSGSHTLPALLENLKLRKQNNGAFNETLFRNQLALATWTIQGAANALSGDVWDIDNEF
T1 sequence (P02786 121-760): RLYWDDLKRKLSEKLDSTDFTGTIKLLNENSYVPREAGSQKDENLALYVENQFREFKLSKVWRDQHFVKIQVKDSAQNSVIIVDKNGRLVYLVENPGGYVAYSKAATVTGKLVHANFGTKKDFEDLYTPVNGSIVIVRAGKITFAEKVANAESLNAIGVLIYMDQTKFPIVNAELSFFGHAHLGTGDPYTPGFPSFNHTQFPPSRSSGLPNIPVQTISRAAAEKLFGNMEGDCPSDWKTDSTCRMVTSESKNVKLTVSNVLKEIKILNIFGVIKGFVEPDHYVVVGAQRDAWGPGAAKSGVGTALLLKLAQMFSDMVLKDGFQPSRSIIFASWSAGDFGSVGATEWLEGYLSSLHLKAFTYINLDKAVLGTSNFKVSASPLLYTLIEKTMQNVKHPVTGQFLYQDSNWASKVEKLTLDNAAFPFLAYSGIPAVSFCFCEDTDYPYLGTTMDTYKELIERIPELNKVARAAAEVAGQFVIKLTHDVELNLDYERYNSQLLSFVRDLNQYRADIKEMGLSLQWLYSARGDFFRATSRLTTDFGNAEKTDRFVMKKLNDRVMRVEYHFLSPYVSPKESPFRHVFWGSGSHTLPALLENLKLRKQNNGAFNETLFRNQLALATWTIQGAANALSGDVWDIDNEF

B1: Fab fragment of the mouse/human chimeric 128.1 IgG1 antibody (Fab, V domains shown)
VH: EVQLQQSGPELVKPGASMKISCKASGYSFTGYTMNWVKQSHGENLEWIGRINPHNGGTDYNQKFKDKAPLTVDKSSNTAYMELLSLTSGDSAVYYCARGYYYYSLDYWGQGTSVTVSS
VL: QIVLTQSPAIMSVSPGEKVTMTCSASSSIRYIHWYQQRPGTSPKRWIYDTSNLASGVPARFSGSGSGTSYSLTISSMEAEDAATYYCHQRNSYPWTFGGGTRLEIR
notes: also called Fab ch128.1/IgG1; ch128.1 Fab
B1: the binding result in experiment [1] is reported as “binds”.

B2: mouse/human chimeric IgG1/κ antibody ch128.1/IgG1 (antibody, V domains shown)
VH: B1 VH
VL: B1 VL
Take B2: in experiment [2], the binding result is given as “binds”.
